The chains are these.
B1: Docking protein 3 (Homo sapiens), Q7L591 (parent)
chain: MTRGARLRSDARAQLNQLSLDGGTGSGQKGKCEEFPSSLSSVSPGLEAAALLLAVTMDPLETPIKDGILYQQHVKFGKKCWRKVWALLYAGGPSGVARLESWEVRDGGLGAAGDRSAGPGRRGERRVIRLADCVSVLPADGESCPRDTGAFLLTTTERSHLLAAQHRQAWMGPICQLAFPGTGEASSGSTDAQSPKRGLVPMEENSIYSSWQEVGEFPVVVQRTEAATRCQLKGPALLVLGPDAIQLREAKGTQALYSWPYHFLRKFGSDKGVFSFEAGRRCHSGEGLFAFSTPCAPDLCRAVAGAIARQRERLPELTRPQPCPLPRATSLPSLDTPGELREMPPGPEPPTSRKMHLAEPGPQSLPLLLGPEPNDLASGLYASVCKRASGPPGNEHLYENLCVLEASPTLHGGEPEPHEGPGSRSPTTSPIYHNGQDLSWPGPANDSTLEAQYRRLLELDQVEGTGRPDPQAGFKAKLVTLLSRERRKGPAPCDRP
partner: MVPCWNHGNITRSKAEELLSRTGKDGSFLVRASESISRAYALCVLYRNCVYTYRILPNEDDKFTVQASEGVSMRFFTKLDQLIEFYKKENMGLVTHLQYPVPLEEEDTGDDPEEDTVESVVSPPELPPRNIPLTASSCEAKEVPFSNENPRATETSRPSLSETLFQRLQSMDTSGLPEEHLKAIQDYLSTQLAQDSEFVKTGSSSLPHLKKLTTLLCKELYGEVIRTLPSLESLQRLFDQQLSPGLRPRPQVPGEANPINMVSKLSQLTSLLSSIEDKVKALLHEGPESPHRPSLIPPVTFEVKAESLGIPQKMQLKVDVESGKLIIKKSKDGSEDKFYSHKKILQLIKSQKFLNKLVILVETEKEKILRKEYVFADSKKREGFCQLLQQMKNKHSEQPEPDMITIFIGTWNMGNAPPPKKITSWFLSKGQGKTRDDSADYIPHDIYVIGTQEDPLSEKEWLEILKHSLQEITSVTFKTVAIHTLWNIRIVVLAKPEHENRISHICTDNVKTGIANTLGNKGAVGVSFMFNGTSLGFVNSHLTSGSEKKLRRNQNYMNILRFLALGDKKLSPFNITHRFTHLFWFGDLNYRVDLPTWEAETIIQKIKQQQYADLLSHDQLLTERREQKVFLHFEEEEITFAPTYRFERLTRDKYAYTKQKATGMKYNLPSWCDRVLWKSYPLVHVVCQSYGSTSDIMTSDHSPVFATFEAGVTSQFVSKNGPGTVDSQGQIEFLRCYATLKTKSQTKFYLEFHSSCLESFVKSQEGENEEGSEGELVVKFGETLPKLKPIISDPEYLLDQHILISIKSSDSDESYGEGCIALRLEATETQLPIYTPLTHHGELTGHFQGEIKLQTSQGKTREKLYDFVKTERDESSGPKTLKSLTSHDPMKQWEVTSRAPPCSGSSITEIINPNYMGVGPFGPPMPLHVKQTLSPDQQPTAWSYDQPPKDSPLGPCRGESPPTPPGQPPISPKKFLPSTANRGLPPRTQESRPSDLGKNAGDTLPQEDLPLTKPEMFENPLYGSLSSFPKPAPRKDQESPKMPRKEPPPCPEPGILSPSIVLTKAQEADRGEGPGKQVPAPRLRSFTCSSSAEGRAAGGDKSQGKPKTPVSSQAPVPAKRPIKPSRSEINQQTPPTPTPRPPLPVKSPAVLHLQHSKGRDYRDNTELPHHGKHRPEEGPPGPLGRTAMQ

The variants in the experiment derive from B1. The conditions noted are these: with ship1_human INPP5D.
In the case of R197F, the “effect of a mutation on the interaction” value was “decreasing interaction”.

Source of the values: IntAct's records for PubMed 17290227.
